B1: Hairpin Ribozyme (parent)
chain: GUCCUCUUUCACGUGCGCGUGAAAGAGAGAAGUGAACCAGAGAAACACACGUUGUGGUAUAUUACCUGGUA

From the RNAGym collection of RNA variant scans (doi:10.7554/elife.80360) come the findings set out here.

Variants of B1 are the subject of this data set. The data set is described as follows: self-cleavage, relative activity (ratio to wild type); higher = more cleavage; co-transcriptional.
As for G19C U63G, the self-cleavage came out at 0.123.

On to G19C U63C, for which the self-cleavage came to 0.168. Turning to G19C U63A, the self-cleavage came to 0.107. With U20A C46U, the self-cleavage was 0.183. As to G19U U70C, the self-cleavage turned out to be 0.722. G19U U70A: the self-cleavage amounted to 0.773.

On to G19U C50G, for which the self-cleavage was found to be 0.199.

For the variant G19A U52G, the self-cleavage was 0.735.

For C18G A59C, the self-cleavage worked out at 0.224.

Regarding G19A C38G, the self-cleavage was determined as 0.159.

In the case of G19U U53C, the self-cleavage was 0.952. Consider G19U U53A, for which the self-cleavage came out at 0.971. With G19U U53G the figure was 0.772. For the variant C18G A36U, the self-cleavage was 0.728.

As for U20C A22U, the self-cleavage worked out at 0.602.

Take U20C A31G: the self-cleavage was determined as 0.469.

As to U20C A31C, the self-cleavage was 0.0231. For the variant U20C G40U, the self-cleavage is 0.19. U20C G40A: the self-cleavage worked out at 0.314.

On to G19A A61U, for which the self-cleavage came out at 0.147. Consider G19A A61G, for which the self-cleavage was 0.158. Turning to G19A G56U, the self-cleavage is 0.123. For U20A G21C the value was 0.691; for G19U A61U, 0.183. Regarding U20A C48A, the self-cleavage is 0.23.

Turning to U20A C48G, the self-cleavage amounted to 0.219.

For C18U G40U, the self-cleavage turned out to be 0.244. Consider C18U G40A, for which the self-cleavage was 0.265. In the case of G19A G51C, the self-cleavage is 0.702. As for G19A G51U, the self-cleavage was found to be 0.881. G19U A59C: the self-cleavage turned out to be 0.242. C18G A35U: the self-cleavage is 0.544. For the variant G19C C46G, the self-cleavage worked out at 0.088. On to G19C C46U, for which the self-cleavage came out at 0.229. On to G19C U52G, for which the self-cleavage came to 0.898.

In the case of G19U G68A, the self-cleavage was found to be 0.286.

Turning to G19U C65U, the self-cleavage was 0.306.

As to C18G G54A, the self-cleavage was 0.51.

On to C18G G54U, for which the self-cleavage was 0.449. With C18G G27C the figure was 0.0884; with C18G U67G, 0.275; with G19U G56U, 0.179. For G19A A39U, the self-cleavage came to 0.404.

As for C18G C50A, the self-cleavage came out at 0.245. On to C18G C50G, for which the self-cleavage came to 0.176.

Turning to G19C A64G, the self-cleavage was found to be 0.545.

For the variant C18G G69C, the self-cleavage stood at 0.205. For C18U A49C, the self-cleavage amounted to 0.193.

Take C18U A49G: the self-cleavage was 0.567. For G19U A22C the value was 0.625. On to G19U A22G, for which the self-cleavage turned out to be 0.715. Turning to G19A U70G, the self-cleavage came out at 0.917.

For the variant C18G C66G, the self-cleavage is 0.19. As for C18G C66U, the self-cleavage came out at 0.479. For G19U U20G the value was 0.707; for C18G A71U, 0.698; for C18U U55G, 0.382.

On to C18U U70A, for which the self-cleavage was determined as 0.899. With G19U G40U, the self-cleavage was determined as 0.194. For C18U A43U the value was 0.102.

As for C18G G68U, the self-cleavage was 0.171.

With C18U C66G, the self-cleavage worked out at 0.202. Turning to G19A A41C, the self-cleavage was found to be 1.13. With G19C A31C the figure was 0.143; with C18U C48A, 0.134; with C18U C48U, 0.0571. For the variant C18U U52A, the self-cleavage is 1.09.

In the case of G19U A41U, the self-cleavage was found to be 1.24. On to C18U G54A, for which the self-cleavage came to 0.695.

Take C18U G54U: the self-cleavage stood at 0.702. In the case of C18U G42U, the self-cleavage is 0.407. With U20A U58G the figure was 0.762; with U20A U58A, 0.709; with G19U A35C, 0.809. On to C18U G27C, for which the self-cleavage was determined as 0.228.

G19C A44U: the self-cleavage was determined as 0.0473. As to G19C G42U, the self-cleavage worked out at 0.24. For C18G G32A the value was 0.154. Consider C18G G32U, for which the self-cleavage amounted to 0.1. Take G19U A39U: the self-cleavage was determined as 0.324. For G19U A39C, the self-cleavage stood at 0.502.

Regarding G19A A43C, the self-cleavage is 0.15. Regarding C18U A26U, the self-cleavage amounted to 0.59. Turning to C18U A26G, the self-cleavage was found to be 0.975. For G19C U33G the value was 0.0947; for G19A U67A, 0.264. For G19A C37U, the self-cleavage is 0.567. With G19A U63G the figure was 0.2. Consider C18G U62G, for which the self-cleavage is 0.163.

As for G19U G21U, the self-cleavage is 0.784.

With U20A G40A, the self-cleavage was 0.242. For U20C A23G the value was 1; for G19A U53C, 0.854. As for G19A U53G, the self-cleavage is 0.691. For G19A A64U the value was 0.198. For G19A A49G the value was 0.595; for G19U A31G, 0.624. Turning to C18G G56A, the self-cleavage came to 0.14. For C18G G56C the value was 0.176. In the case of C18G U52A, the self-cleavage worked out at 0.833.

Turning to C18G U52C, the self-cleavage worked out at 1.04. Take U20C G32C: the self-cleavage stood at 0.0574. As for U20A U67A, the self-cleavage amounted to 0.217. As to G19C A47G, the self-cleavage turned out to be 0.277. In the case of U20C A26G, the self-cleavage turned out to be 1.06. As for G19C C65G, the self-cleavage amounted to 0.25. G19C C65A: the self-cleavage was 0.877. For U20A C38A the value was 0.168; for U20C A24U, 0.503; for C18U G21C, 0.883. In the case of C18U G21U, the self-cleavage came to 0.814. With C18U G21A the figure was 0.833; with C18G A45C, 0.152; with G19C C48U, 0.132.

As for G19C C48A, the self-cleavage was found to be 0.122. On to C18G G34C, for which the self-cleavage came to 1.17. Regarding C18G G34U, the self-cleavage worked out at 1.32. Regarding U20C A39G, the self-cleavage worked out at 0.311. Regarding U20C A39U, the self-cleavage was 0.315. For the variant C18U C65U, the self-cleavage stood at 0.373. As for G19A U20A, the self-cleavage stood at 0.762. With G19A U20C the figure was 1.12. With U20A A39C, the self-cleavage was 0.403. In the case of U20A A39G, the self-cleavage worked out at 0.302.

U20A A41U: the self-cleavage amounted to 1.16. With U20A A41C the figure was 1.28; with G19U A24C, 0.79. Take G19A G21A: the self-cleavage stood at 0.659. For G19C G54C the value was 0.406.

Consider C18U U60A, for which the self-cleavage was 0.883. For the variant G19U C37G, the self-cleavage came to 0.341. Consider G19U C66U, for which the self-cleavage amounted to 0.334. As for U20C C65U, the self-cleavage came to 0.284. In the case of U20C C65A, the self-cleavage worked out at 1. In the case of U20A A49G, the self-cleavage stood at 0.437. For U20A A36G, the self-cleavage turned out to be 0.858.

Turning to G19U C46A, the self-cleavage was determined as 0.17. Turning to G19U C46G, the self-cleavage amounted to 0.157. On to C18U G29A, for which the self-cleavage turned out to be 0.194.

As to U20A G29U, the self-cleavage was determined as 0.165. As to U20A G29C, the self-cleavage amounted to 0.203. With G19C A24U the figure was 0.533; with G19C A24G, 0.889; with G19C A24C, 0.639.

For C18U U20G, the self-cleavage amounted to 1.13. Turning to G19C U67C, the self-cleavage was determined as 0.176. Take G19A A47U: the self-cleavage is 0.144. For the variant U20A A44U, the self-cleavage worked out at 0.177. Turning to U20A A44G, the self-cleavage worked out at 0.112. For U20A U70C the value was 0.663. Regarding G19C C50A, the self-cleavage came out at 0.264. For C18G U55G, the self-cleavage worked out at 0.311. Regarding G19U U33G, the self-cleavage stood at 0.117.

Consider G19U U33C, for which the self-cleavage came out at 0.202.

Regarding G19U U33A, the self-cleavage is 0.237. For C18U C38G the value was 0.158; for G19A G69U, 0.213; for G19U C48U, 0.162. Take C18G G57A: the self-cleavage is 0.118. As for C18G G57U, the self-cleavage was determined as 0.243. Consider G19A G42U, for which the self-cleavage worked out at 0.331. Regarding U20C A71U, the self-cleavage amounted to 0.79.

In the case of U20C A71C, the self-cleavage was found to be 1.28. For G19U G57U the value was 0.207; for U20A G42C, 0.306; for G19U A23G, 0.932.

In the case of C18U A31C, the self-cleavage came to 0.0854.
